Source: the DeepSol protein solubility set

Assay: soluble on expression in E. coli; label from the status in PepcDB or PDB records

In the case of “MGSDKIHHHHHHMRKDVLEGVLLHIMNEIHPNFAALAKQYNCDYRTVKRYYEAGLTGDLDKLRERKPSVPPLLHGFEEIIRDKLELNCSAASIFYFLGKKDYKGSYTTIKRYCRKYREEKVQKATIRIETTPGLSAQVDWKENVKMVSRDGEVFYFNIFLYILGYSRMKYLELTFDRTQPTVFQCLVNAFEYCGNGIPQEIWFDNMKTVVDRSKSQFTQTVFNEKFRQFAKDAGFHPIACRPFRPQTKGKVEALARTVERLMVFNYEFTDVQELKQIIYELMQDLNGSVSQAIHNKPTVLLKEELPILAPIHRLELLSYVSRNKRLLRKVSMESMVQYQNAKYSVPVKYIGKEVTLDIRRDNLFVWYGDKCIRTHPISEKALNYQREDSLEILRSDVFKYLEDEELERFVDDNLHAYDDL”, the “soluble on expression in E. coli” value is reported as “not soluble”.
In the case of “MIPFVWGICMPTLRNPQYRAFARRKLYRRQDGKCFYCHRDLTTKKTGELALTIEHRKAKMKGGTDDLKNLVAACWHCNHHRGEQMNATKQRKEAKALSRQRRMLARDCRSKADSQADGKAHEQLASKVEGNGANRTPSVHTARSEGLGLEHHHHHH”, the “soluble on expression in E. coli” value is reported as “soluble”.
For “MIQITVVQIDNYGPWTVTPNPRRESDLQALQSRLYCDMNLQFGAHKGLAFYTRFDNIIAITNGIDLETHKRIQNSVKNRYPFTVSMAVASAETAYEAQKLATKTIQEYGSAQDDVRKEVLDVANEFVSNGYVQLAHVDINDITGKLTDLETAYDTYLSVQKTKLKLMEELKKYDSLGFFIGGDNFMCPCNGMNEKDFLCMFEDIKDSCGIELKAGIGIGKTAEDASNLADIGLEVIREGKTDSQVYTLKQ”, the “soluble on expression in E. coli” value was “not soluble”.
In the case of “GPGSMRKKSVQETDEVPNERLPHILSSSDDPTEVNKALVVLLRRLRAGAGEPISLSPATLSQLLRILVGRTDDAWLEVRKKIAFVFSELLSKDNADVLADALLYGRLHTTTSSEARASRIDFGGVDENSAPDPFTSLKKMKEILGKLAEAHGTVERCVPAADVFRTFLRLPALLEVIMSPEPLFDVEDNDGSAPAHHATKKRCFNDTCIGILCRSAQAYTTALCTETWRSLSTALCTNKALSAPLLLCYFNEFVGMFLGCLEGDNFVAKLHALELIDAILEDAAFLKARPKLAESPALLCALLPLTNSRSQHIRFLTFDAIKVFIAKGNKPAPIRYILYINRETLARYVEDYSPNEATIGKVLSAEKEKILRSLLSLEPLSHEEEVLLNASA”, the “soluble on expression in E. coli” value is reported as “not soluble”.
For “MPMPFTRDDDYDSDPEVQAEKEMAKKDPIGFAIDSSSLTSMKKAAAAAAKDQVSTTPPNLVIGSNGGAGTIATVPRSKSQDEIVKKQKTAGQSKALKKQRSRGISGCSSRKYSGYDDEMDEDFGDDEDYDHYGGQEVFDEDEEDTFVAKK”, the “soluble on expression in E. coli” value was “not soluble”.
In the case of “MGSDKIHHHHHHMVGENMDIFVSDYEKQYKEILTGFDPTTFSETWVENQQWQLDFYVEKTRNNQDVFDLLNHESSVYLDGQEFVVKQLKRGAVGKIVYSEVTATHIYFTMQDDYQYNAISGSKSAKDCLTHIFAADKQGFSFELIDKNKVLENITQENFGNGNLLKLVQEVLEDYKLVMLADNKRLTFIPSEDYGEHTENEIRYNKHTNEVDFDIDTLSLRTQIKGYGKVDSNGNNYFPPVTFTSPESAKWGVRIQEPLSDERYTTSSSMLRRLKLELQDYPATTGNISLKLKYECGKGDYVMFVYEPLGLLYEVQIVAYKKYIFTNKPPELTLSNNKKTMVSIMVQLAKAIKRGAK”, the “soluble on expression in E. coli” value is reported as “not soluble”.
For “MAHHHHHHMLSASSSSSELETADDASVEHAALAYERVRREHALQRYLKAREAYEVACIARERRQLVVQSHNHTLRLLGQVVCDVKAVVDGTLKEGLSVRESTATAAEMLLASSCYKRAERGLVTLLAHEGRQHEVLRAATSPATETSRIPQVFSSGSRAEKPVASSPAKHMLRPLLLLCEWRLDYATLLCRQRLPLFSELARAQRVVSNSRESAREARGRMSAPTTPVVQRCQVQVAEARASLAKARAFQRSLKDRLHQLHQMLSRSAPVHAESGVFVDAGVAEEIQARLRQELAVGHVTLLRILCESLSGAFDERGRLTAL”, the “soluble on expression in E. coli” value was “not soluble”.
With “MGSDKIHHHHHHMVGMLERTIAGLQRNNMAGYFVHNRQELMALLSGLMEKGQTVGCGDSVTLEELGVFDFLRKGDYIFYDKYVPGLTSEDKRRLYIQNFAADTFITGTNAVTTDGKLFNIDGNGSRVAPMIYGPRQVIVVVGTNKITEDVESAIQRVRQIAAPMDAKRLKKETPCTKLNRCVDCRHPQRICNDFVLITGQFVKDRIKVIIIDMEIGY” the “soluble on expression in E. coli” value was “not soluble”.
For “MGSDKIHHHHHHMNKDLFISSFDHRVYKKQPLAERMRPHSLNDVTGQSHLVGEKGLLSRIVAAGSIGSMIFWGPPGTGKTTVARLLALETNFAFEQVSAIFTGVAELKKIFESAQARFMSGSQTVLFVDEIHRFNRAQQDSFLPVMEDGTVILIGATTENPSFELNAALLSRARVLTFLPHDNESLGMLLKRAEALEEKTLPLDDNARDVLIDMSDGDARAALTLAEEVWSVARPGEIFDAAALRKIVQRRAPIYDKGRDGHYNLISALHKSVRGSDPDAALYYLARMFDAGEDPLYIGRRLVRMAVEDVGLADPQALVICNAAKDAYDYLGSPEGELALAQACLYVATAPKSNATYLAYKAAMRCARKNGSLPPPKHILNAPTKFMKEEGYGHGYCYDHDEPDAFSGQEYFPEKLGRQSYYQPVERGFEREIAKRLEWWKQLRKKRANQK”, the “soluble on expression in E. coli” value was “not soluble”.
In the case of “GPGSMLRPSSLCRVAFPVHRDTTKTPRLVKEVGSWLYKRETVESFRAWCKANNVRGSGNVKVVSTMHYARCLRAARHLRPGQAIITLPHTACFNFLVVAKEMYGVSGKGGTVSHNFPLEVNWMNYDERCSFLRSASMSELTTAGWMCRIASLEESRFTPYIHWLLEDTRGRDGVANGVSRERGEESGLVDHYFSEMATDACEDPEEFLENLFRSFAALHLRAVPIESAAIRLFLPGTNFFKAKVDEMFVPTLMPLIDAVPQLEDGLHNTAVEYFPFSDEETLLKQCKDLVLSEGGTNEMRELRRRCLAQEQGAGAFFALRALCPIEEGDYLYVRGVPKLGAPEQESMTVRVMEANRLLNNE”, the “soluble on expression in E. coli” value is reported as “not soluble”.
For “MGSDKIHHHHHHMDSGMNEKTTAELEHLRGLIDGVDQQLLHLLRKRLDLVAQVGTVKHGAGLPIYAPQREAAMLAKRREEAKNMGIAPQLIEDILRRLMRESYLNEKDVGFKQVKKDLGSVVIVGGKGQLGGLFSQMLTLSGYQVNLLDKDDWQQADSLFADAGMVLVTVPIAITCELIREKLTQLPADCILADLTSIKTEPVKAMLEAHSGPVVGFHPMFGPDVGSLAKQVVVVCHGRSPEKYQWLLEQIAIWGARIVEAEPERHDSAMQLVQAMRHFSTFVYGLNLCKEEADIDTLLQFSSPIYRLELAMVGRLFAQSPELYADIIFAQQDSQHAIGDYLDNYREALELLKRGDRNEFIKQFQSVAKWFGDFAPQFQRESRIMLQSVNDMKTN”, the “soluble on expression in E. coli” value was “not soluble”.
With “QVQLVESGGGLVQPGGSLRLSCAASGFTFSSYAMSWFRQAPGKEREIVSAVSGSGGSTYYADSVRGRFTISRDNSKNTLYLQMNSLRAEDTAVYYCAREPRIPRPPSFDYWGQGTLVTVSS” the “soluble on expression in E. coli” value was “soluble”.
In the case of “MGTFTATYFLKNAFWDKRGLWTATLAVAYFARCWESAGYNKAEMMKGHSKMYADRLKQLPAHTDAWKY”, the “soluble on expression in E. coli” value is reported as “not soluble”.
For “GMKRAVVVFSGGQDSTTCLIQALQDYDDVHCITFDYGQRHRAEIEVAQELSQKLGAAAHKVLDVGLLNELATSSLTRDSIPVPDYDANAQGIPNTFVPGRNILFLTLASIYAYQVGAEAVITGVCETDFSGYPDCRDEFVKALNQAIVLGIARDIRFETPLMWLNKAETWALADYYQQLDTVRYHTLTCYNGIKGDGCGQCAACHLRANGLAQYQKDAATVMASLKQKVGLR”, the “soluble on expression in E. coli” value was “soluble”.
For “MTNFKDNDGDGTKLHVVMFPWLAFGHMVPYLELSKLIAQKGHKVSFISTPRNIDRLLPWLPENLSSVINFVKLSLPVGDNKLPEDGEATTDVPFELIPYLKIAYDGLKVPVTEFLESSKPDWVLQDFAGFWLPPISRRLGIKTGFFSAFNGATLGILKPPGFEEYRTSPADFMKPPKWVPFETSVAFKLFECRFIFKGFMAETTEGNVPDIHRVGGVIDGCDVIFVRSCYEYEAEWLGLTQELHRKPVIPVGVLPPKPDEKFEDTDTWLSVKKWLDSRKSKSIVYVAFGSEAKPSQTELNEIALGLELSGLPFFWVLKTRRGPWDTEPVELPEGFEERTADRGMVWRGWVEQLRTLSHDSIGLVLTHPGWGTIIEAIRFAKPMAMLVFVYDQGLNARVIEEKKIGYMIPRDETEGFFTKESVANSLRLVMVEEEGKVYRENVKEMKGVFGDMDRQDRYVDSFLEYLVTNR”, the “soluble on expression in E. coli” value was “soluble”.
With “GIPRNSSTGAKTAKSDKLKVVATNSIIADMTKAIAGDKIDLHSIVPIGQDPHEYEPLPEDAEKTSNADVIFYNGINLEDGGQAWFTKLVKNAQKTKNKDYFAVSDGIDVIYLEGASEKGKEDPHAWLNLENGIIYSKNIAKQLIAKDPKNKETYEKNLKAYVAKLEKLDKEAKSKFDAIAENKKLIVTSEGCFKYFSKAYGVPSAYIWEINTEEEGTPDQISSLIEKLKVIKPSALFVESSVDRRPMETVSKDSGIPIYSEIFTDSIAKKGKPGDSYYAMMKWNLDKISEGLAK” the “soluble on expression in E. coli” value was “soluble”.
For “MGSDKIHHHHHHMNSLPTESPQSKKSLPSTSMLAAFDAAARTGSFTAAAKDLALTQGAISRQVNALEMQISVNLFHRHKQNISLTEAGKTYAKEVNSALSHIRSATLNLMTNPDGGILNIAILPTFGSRWLMPRLADFLAKHPRITINTVCKLSQFDFSHEDIHCAIHFGKADWSQANCTFLMAEESVPVCSPKLFEQAELAKVDNVCARLINLPLLHIATRPNAWQHWFDEHNVDSTTKEQPKKKTLQDMHFEQFSIVTNAAVAGLGVALLPKFLVESELQRGELQVICNKPQRTDNGYYLVTPNDKLNYAPMVAFTRWLSQVIKSEKPSILNK”, the “soluble on expression in E. coli” value was “not soluble”.
For “MSPPLVIKNGTVVNEDGMFKADVLVRNGIIVEVSPNITALPDTEVIDATDRLVIPGGIDPHTHMQMPYMGEVTKDDFLKGTEAAVAGGTTMIIDFCCPDHRNGESLIAGYNRWRSWADPKVCCDYGLSVAITMWRPETAEQMAIITSPEFGVNSFKFYMAYENTLMVRDDELFRGMQECAKLRALARVHCENGSVIKEKEIDLLAKGVTGPEGHTQSRPEEIEAEATNRACVLAAQANCPVYIVHVMTKGAASAISHHRAQGSIVFGEPIAAGLALDGSHYYNEDWLHAARYVMSPPLSRDPTTPELLMKLLAAGELHLTGTDNCTYDCRQKSLGKGNFTKIPNGINGVEDRMSVVWEKGVHSGIIDPMRYVSITSSTAAKIFNIYPRKGRIAVGSDADIVIFNPNATRTISKDTHHHNLDFNIFEGINCHGVAEVTISRGRIVWAHGKLQTVPGSGKFIPLLANSPFVFSTHEKREQKIQPRIVERLE”, the “soluble on expression in E. coli” value was “not soluble”.
With “MKDVIEKRHIRAEVPIELTWDLSDLYESDKKWETALRVLTDDIKKLDAFKGQLHTSPTTLLHCLLLEEELLMKLTKLYSYANLKESTDRTNPVIQANSSKIAALWTKVHTALSFIHNEILSLEEGTIEKYLTKETKLEPFRKSLLDILQKRQYTLSPETEEALAALGEVHSSPYKIYGMTKLADMDFNSIQDEQGNELPVSFSLFESKYEFSPSVDIRRKAYSSFVSTLKRYKNTVATTYATEVKKQVTLSRLRKFESVTHMLLEPQNVPLEMYNNQLDIIYKELAPHMRRFADLKKKVLGLDQMLFCDLHAPLDPEFNPAITYEEAGKLIQDSLQVLGDEYSAIIKKGFKERWVDLADNVGKSTGAFCSSPYGSHPYILITWQNTMRGCFTLAHEFGHAGHFYLANKNQRIMNVRPSMYFVEAPSTMNELLLAQHLLATTDDKRMRRWVILQLLGTYYHNFVTHLLEGEYQRRVYSLAEEGEALTATTLTEIKTNVLSTFWGNSVEIDEGAGLTWMRQPHYYMGLYSYTYSAGLTASTAVAQMIKEEGQPAVDRWLDVLRAGGTMKPLELMKHAGVDMSKPDAIRKAVSYVGSLIDELERSYEE” the “soluble on expression in E. coli” value was “not soluble”.
